Data as given in publication PMC11107202, “Hypothiocyanous acid reductase is critical for host colonization and infection by Streptococcus pneumoniae” (The Journal of Biological Chemistry, 2024).

Key:
N#CSO = assay: purified protein; conditions: 200 μM NADH, 10 nM 6-His-tagged Har, 100 mM sodium phosphate pH 7, 25 °C, HOSCN 1-50 μM
[1] = target: hypothiocyanous acid reductase (Har) (Streptococcus pneumoniae); assay: AUC; sedimentation velocity; Har at 2 uM and 20 uM in 20 mM Tris-HCl pH 8.0, 150 mM NaCl; 50,000 rpm, 20 °C; 2DSA and genetic algorithm analysis in UltraScan 4.0
Har = target: T1, Har (Streptococcus pneumoniae, UniProt A0A0H2ZMK9); assay: X-ray crystal structure, […] Å; type: binding; conditions: tag-cleaved Har; 2.4 M sodium malonate pH 7.0, 20 °C
T1 construct: gene SPD_1415; full length, 438 residues; E. coli BL21(DE3), pET28a; N-terminal 6-His tag kept for kinetics, cut by HRV-3C for crystals (4-residue scar); motif CXXXXC (C43, C48), K13, K16, H425, E430

Har (Streptococcus pneumoniae D39) was tested, and the Km (N#CSO) was 3.8 ± 0.3 µM and the kcat (N#CSO) was 440 ± 10 s⁻¹.

“hypothiocyanous acid reductase (Har) (enzyme)” showed a stoichiometry N [1] of 2.

`Cc1cc2nc3c(=O)[nH]c(=O)nc-3n(C[C@H](O)[C@H](O)[C@H](O)COP(=O)(O)OP(=O)(O)OC[C@H]3O[C@@H](n4cnc5c(N)ncnc54)[C@H](O)[C@@H]3O)c2cc1C` [FAD] was tested, and the “X-ray crystal structure, 1.50 Å” value (Har) was “first crystal structure of full-length Har”.
